Values belong to the binder of their own block, whether it stands above or below them.
Key:
[1] = biological target: T1, 人TIGIT (膜表达人TIGIT稳转细胞株DG44-TIGIT) (human, UniProt Q495A1 22-244); test: FACS binding to DG44-TIGIT cells
T1 construct: whole, on cells; also called 细胞表面的TIGIT蛋白; huTIGIT
T1 sequence (looked up): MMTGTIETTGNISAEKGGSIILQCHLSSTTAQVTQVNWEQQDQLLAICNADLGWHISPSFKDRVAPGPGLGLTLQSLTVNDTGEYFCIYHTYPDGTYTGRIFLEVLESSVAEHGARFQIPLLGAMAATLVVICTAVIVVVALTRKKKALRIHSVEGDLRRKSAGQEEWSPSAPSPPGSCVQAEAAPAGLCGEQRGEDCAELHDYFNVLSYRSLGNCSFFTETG

rhTIGIT-Avi-His [2] = biological target: T2, rhTIGIT-Avi-His (human, UniProt Q495A1 22-130); test: ELISA, rhTIGIT-Avi-His coated at 0.5 ug/mL, antibody titrated
T2 construct: range 22-130; Expressed in Expi 293 cells, Ni-NTA purified; also called rhTIGIT-Avi-His抗原; not shown: C-terminal Avi tag and His tag from vector pCD-Avi-His
T2 sequence (looked up): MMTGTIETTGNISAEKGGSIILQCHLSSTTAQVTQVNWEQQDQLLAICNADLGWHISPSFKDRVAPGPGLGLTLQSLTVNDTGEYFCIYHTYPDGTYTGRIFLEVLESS

[3] = biological target: T1, 人TIGIT (膜表达人TIGIT稳转细胞株DG44-TIGIT); test: FACS blocking on DG44-TIGIT cells, competitor rhCD155-cFc-647 (1 ug/ml)
rhTIGIT-Avi-His [4] = biological target: T2, rhTIGIT-Avi-His; test: ELISA on coated rhTIGIT-Avi-His
rhTIGIT-Avi-His-bio [5] = biological target: T3, rhTIGIT-Avi-His-bio (human, UniProt Q495A1 22-130, biotin linked to the Avi tag by BirA); test: SPR, KD of D1Y1A against KD of 3TB3
T3 construct: range 22-130; Biotinylated form of rhTIGIT-Avi-His, captured on SA chip for SPR; also called 生物素标记的抗原rhTIGIT-Avi-His-bio; not shown: C-terminal Avi tag (biotinylated) and His tag from vector pCD-Avi-His
T3 sequence (looked up): T2 sequence (looked up)

rhTIGIT-Avi-His-bio [6] = biological target: T3, rhTIGIT-Avi-His-bio; test: SPR (Biacore T200), rhTIGIT-Avi-His-bio captured on SA chip, antibody as analyte

B1: 5TB10 (antibody, V domains shown)
VH: DVQLQESGPGLVKPSETLSLTCTVSGDSVSDAGVGWNWIRQPPGKGLEWIGTIVPRRGITTYNPSLKSRVTISVDTSKNQFSLKLSSVTAADTSVYYCARVTTAGFDYWGQGTLVTVSS
VL: DIVLTQSPATLSLSPGERATLSCRASQDVKILLNWYQQKPGQAPRLLIYWTSDRATGVPTRFSGSGSGTDFTLTISSLEPEDFAVYYCQQHLDRLPYTFGQGTKLEIKR
notes: also called 全人源抗人TIGIT单抗5TB10
EC50 [1]: 0.0872 µg/mL
EC50 (rhTIGIT-Avi-His [2]): 0.754 µg/mL
IC50 [3]: 0.435 µg/mL

B4: D1Y1A (antibody, V domains shown)
VH: DVQLQESGPGLVKPSETLSLTCTVSGGSISYWSWIRQPPGKGLEWIGSIATSYNPSLKSRTSVDTSKNQFSLKLSSVTAADTAVYYCARSYGGNRLDYWGQGTLVTVSS
VL: DIVLTQSPATLSLSPGERATLSCRASQGVRLSWYQQKPGQAPRLLIYYYRATGVPARFSGSGSGTDFTLTISSLEPEDFAVYYCLQFPTFGQGTKLEIK
fold improvement against 3TB3 (ELISA) (rhTIGIT-Avi-His [4]): ~3 fold
fold improvement of affinity against 3TB3 (rhTIGIT-Avi-His-bio [5]): ~4 fold
Kd (rhTIGIT-Avi-His-bio [6]): 0.266 nM

B5: 3TB3 (antibody, V domains shown)
VH: DVQLQESGPGLVKPSETLSLTCTVSGGSISGGYSWSWIRQPPGKGLEWIGSIVPHRSATSYNPSLKSRVTISVDTSKNQFSLKLSSVTAADTSVYYCARSYGGNRLDYWGQGTLVTVSS
VL: DIVLTQSPATLSLSPGERATLSCRASQGVGIRLSWYQQKPGQAPRLLIYYTAYRATGVPTRFSGSGSGTDFTLTISSLEPEDFAVYYCLQTFGDPYTFGQGTKLEIKR
notes: Parent of D1Y1A; also called 全人源抗人TIGIT单抗3TB3; 野生型3TB3
EC50 [1]: 0.0589 µg/mL
EC50 (rhTIGIT-Avi-His [2]): 0.0307 µg/mL
IC50 [3]: 0.212 µg/mL
Kd (rhTIGIT-Avi-His-bio [6]): 1.13 nM

The next lines start with the values.

EC50 [1]: 0.0585 µg/mL
EC50 (rhTIGIT-Avi-His [2]): 0.293 µg/mL
IC50 [3]: 0.308 µg/mL
B2: TDC8 (antibody, V domains shown)
VH: DVQLQESGPGLVKPSETLSLTCTVSGGSISSKGFTWSWIRQPPGKGLEWIGQISPLDSSTSYNPSLKSRVTISVDTSKNQFSLKLSSVTAADTSVYYCARGIWTYLYGFDYWGQGTLVTVSS
VL: DIVLTQSPATLSLSPGERATLSCRASQSIHAGYLAWYQQKPGQAPRLLIYWTNLRATGVPTRFSGSGSGTDFTLTISSLEPEDFAVYYCLQLMRYPPTFGQGTKLEIKR
notes: also called 全人源抗人TIGIT单抗TDC8

EC50 [1]: 0.096 µg/mL
EC50 (rhTIGIT-Avi-His [2]): 0.28 µg/mL
IC50 [3]: 0.563 µg/mL
B3: TBB8 (antibody, V domains shown)
VH: DVQLQESGPGLVKPSETLSLTCTVSGYSISTGYAWSWIRQPPGKGLEWIGSISAFGGNTYYNPSLKSRVTISVDTSKNQFSLKLSSVTAADTSVYYCARTARWIAFDYWGQGTLVTVSS
VL: DIVLTQSPATLSLSPGERATLSCRASQDIGVSLNWYQQKPGQAPRLLIYWTSFRATGVPTRFSGSGSGTDFTLTISSLEPEDFAVYYCQQANGVPLFTFGQGTKLEIKR
notes: also called 全人源抗人TIGIT单抗TBB8

Reference: patent CN109734806A (ANHUI ANKE BIOTECHNOLOGY GROUP CO LTD, dated 2019)
